Measurements taken from patent US20090325887A1.

Biological target: Cav3.1 channel (α3.1 subunit)
Experiment: cell-based or functional assay

Binder LGLLVAIV [γ6 TM1a peptide] has an amplitude of the fast component (Afast) of the unbinding process after 300 µM peptide (bi-exponential fit of current recovery) (normalized fraction) of -0.37, an apparent affinity (Kapp), overall of 50 µM and a dissociation rate estimated from the time constant of Cav3.1 current recovery of 0.167 s⁻¹. For the same binder, the fast time constant for binding (fit of current inhibition) was under 9 s, the fast time constant for unbinding (fit of current recovery) was under 9 s and the fold increase in affinity between -130 mV and -80 mV holding potential was 3 fold. For the same binder, the inhibition of Cav3.1 current at 30 µM peptide (whole-cell patch clamp, HEK/Cav3.1) was 45.3%, the inhibition of Cav3.1 current at 100 µM peptide, -100 mV was 60% and the inhibition of Cav3.1 current at 300 µM peptide was 79.3%. The reversible part of the Cav3.1 current inhibition at 30 µM peptide was 73% and the time constant of the small slower component of the binding and unbinding processes was over 30 s.

With VGLFFALA [γ1 TM1a T12GI16A peptide] the inhibition of Cav3.1 current at 30 µM peptide was 29.4%.

Binder VTLFFILA [γ1 TM1a peptide] has an inhibition of Cav3.1 current at 30 µM peptide of 2.4%.

Work on LLILAVGV [γ6 TM1a SCR peptide] yielded an inhibition of Cav3.1 current at 30 µM peptide of 0.5%.
